B1: Microtubule-associated tumor suppressor candidate 2 (Homo sapiens), Q5JR59-3 (parent)
chain: MGHCCCKPYNCLQCLDKTNESALVKEKELSIELANIRDEVAFHTAKCEKLQKEKEELERRFEDEVKRLGWQQQAELQELEERLQLQFEAEMARLQEEHGDQLLSIRCQHQEQVEDLTASHDAALLEMENNHTVAITILQDDHDHKVQELMSTHELEKKELEENFEKLRLSLQDQVDTLTFQSQSLRDRARRFEEALRKNTEEQLEIALAPYQHLEEDMKSLKQVLEMKNQQIHEQEKKILELEKLAEKNIILEEKIQVLQQQNEDLKARIDQNTVVTRQLSEENANLQEYVEKETQEKKRLSRTNEELLWKLQTGDPTSPIKLSPTSPVYRGSSSGPSSPARVSTTPR
partner: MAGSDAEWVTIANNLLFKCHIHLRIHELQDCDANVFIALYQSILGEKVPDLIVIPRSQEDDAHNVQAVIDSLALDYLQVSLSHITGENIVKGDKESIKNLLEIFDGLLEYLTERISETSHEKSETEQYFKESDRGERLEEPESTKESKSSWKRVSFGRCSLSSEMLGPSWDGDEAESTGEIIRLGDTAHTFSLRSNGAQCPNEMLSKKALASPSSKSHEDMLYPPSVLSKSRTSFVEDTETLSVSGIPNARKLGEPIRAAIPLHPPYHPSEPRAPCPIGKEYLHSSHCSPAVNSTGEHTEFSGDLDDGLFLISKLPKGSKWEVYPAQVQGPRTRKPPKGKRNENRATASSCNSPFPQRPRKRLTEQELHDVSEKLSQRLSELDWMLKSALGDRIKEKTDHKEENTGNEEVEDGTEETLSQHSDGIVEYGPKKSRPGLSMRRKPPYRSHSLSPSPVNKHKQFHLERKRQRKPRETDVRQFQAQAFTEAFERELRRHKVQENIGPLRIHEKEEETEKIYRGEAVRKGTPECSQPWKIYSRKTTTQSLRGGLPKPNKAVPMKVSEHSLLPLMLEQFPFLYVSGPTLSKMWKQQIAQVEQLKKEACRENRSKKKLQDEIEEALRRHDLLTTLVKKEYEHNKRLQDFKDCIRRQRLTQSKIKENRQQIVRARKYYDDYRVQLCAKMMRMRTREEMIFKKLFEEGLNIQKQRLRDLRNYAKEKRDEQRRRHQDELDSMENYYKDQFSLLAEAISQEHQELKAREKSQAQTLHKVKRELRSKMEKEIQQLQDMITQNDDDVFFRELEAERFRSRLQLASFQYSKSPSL
B2: Alpha-ketoglutarate-dependent dioxygenase alkB homolog 3 (Homo sapiens), Q96Q83 (parent)
chain: MEEKRRRARVQGAWAAPVKSQAIAQPATTAKSHLHQKPGQTWKNKEHHLSDREFVFKEPQQVVRRAPEPRVIDREGVYEISLSPTGVSRVCLYPGFVDVKEADWILEQLCQDVPWKQRTGIREDITYQQPRLTAWYGELPYTYSRITMEPNPHWHPVLRTLKNRIEENTGHTFNSLLCNLYRNEKDSVDWHSDDEPSLGRCPIIASLSFGATRTFEMRKKPPPEENGDYTYVERVKIPLDHGTLLIMEGATQADWQHRVPKEYHSREPRVNLTFRTVYPDPRGAPW
partner: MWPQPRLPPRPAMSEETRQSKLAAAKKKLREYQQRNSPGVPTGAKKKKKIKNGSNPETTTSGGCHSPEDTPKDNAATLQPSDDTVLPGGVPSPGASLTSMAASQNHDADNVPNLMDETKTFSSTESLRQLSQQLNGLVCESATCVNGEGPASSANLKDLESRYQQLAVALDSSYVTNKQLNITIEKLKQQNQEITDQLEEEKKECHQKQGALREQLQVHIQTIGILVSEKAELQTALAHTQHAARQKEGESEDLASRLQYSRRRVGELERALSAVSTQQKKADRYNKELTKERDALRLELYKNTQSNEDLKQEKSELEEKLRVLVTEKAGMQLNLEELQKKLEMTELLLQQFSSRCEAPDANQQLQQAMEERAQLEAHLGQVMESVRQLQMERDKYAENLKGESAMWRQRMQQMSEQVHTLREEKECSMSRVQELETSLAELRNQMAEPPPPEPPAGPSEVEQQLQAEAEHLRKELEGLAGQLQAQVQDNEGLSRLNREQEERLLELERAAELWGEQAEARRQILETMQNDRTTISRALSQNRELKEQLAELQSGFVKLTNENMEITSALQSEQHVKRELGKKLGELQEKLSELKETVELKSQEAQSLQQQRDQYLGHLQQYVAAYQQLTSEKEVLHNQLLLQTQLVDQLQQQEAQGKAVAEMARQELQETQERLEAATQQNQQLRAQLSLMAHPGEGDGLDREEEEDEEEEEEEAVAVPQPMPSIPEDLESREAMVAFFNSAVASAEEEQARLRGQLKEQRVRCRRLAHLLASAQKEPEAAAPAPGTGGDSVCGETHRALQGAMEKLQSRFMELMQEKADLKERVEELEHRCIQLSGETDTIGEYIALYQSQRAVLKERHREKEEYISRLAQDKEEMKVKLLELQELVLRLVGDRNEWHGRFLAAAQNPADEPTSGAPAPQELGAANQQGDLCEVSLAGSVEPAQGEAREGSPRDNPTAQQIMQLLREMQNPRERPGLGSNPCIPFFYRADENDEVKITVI
B3: EF-hand domain-containing family member C2 (Homo sapiens), Q5JST6 (parent)
chain: MALPLLPGNSFNRNVGKEKFHKSQHWGFCNNVMMLVSDEKPGIGGEPLLGQKIKPKCSIYPKGDGSDVPSWVAFDKQVLSFDAYLEEEVLDKSQTNYRIRYYKIYFYPEDDTIQVNEPEVKNSGLLQGTSIRRHRITLPPPDEDQFYTVYHFNVGTEVVFYGRTFKIYDCDAFTRNFLRKIGVKVNPPVQCPEDPYMKIRREVVEHVEPLRPYESLDTLKQFLQYHGKILCFFCLWDDSVSMFGDRRELILHYFLCDDTIEIKELLPHSSGRDALKMFLRRSKLPKNCPPRVYQPGQITDRAVLNSYGDFIKNQADGYLFDRYKLGKVDQEFYKDSDLSLGVTINVWGRKVLLYDCDEFTKSYYKSKYGIENFTSVSCKPPSPPPKIERKFPPYNGFGSEEDSLRNCIDLKPTPHRRNFKKFMEKDSYGSKSNILRFFAKLVTDKCVDLDRMFVISYYLGDDTISVFEPIERNSGIAGGMFLKRSRVKKPGQEVFKSELSEYIKAEELYIGVTVNVNGYLFRLLNADEYTLNYMEQNTDKYPFSNLKLALQKLKQEEGKSRELKQVFKAADSKHTNMVDYNTFRDILMSLTVGNLAEQEFVTIARHYRVPEGTCSDMDFLIALAHEKFKKNMFENFDTFIYSCVYEDREKKNVLPTKDIKRLCKSSRLPLSDDLLESLLSRFEDSEKQIDYKSFFSALNWRKNPVPELQPASYLKERCEDVWLGMPSPIPAKYIDYWTFLKDAFGLEEE
partner: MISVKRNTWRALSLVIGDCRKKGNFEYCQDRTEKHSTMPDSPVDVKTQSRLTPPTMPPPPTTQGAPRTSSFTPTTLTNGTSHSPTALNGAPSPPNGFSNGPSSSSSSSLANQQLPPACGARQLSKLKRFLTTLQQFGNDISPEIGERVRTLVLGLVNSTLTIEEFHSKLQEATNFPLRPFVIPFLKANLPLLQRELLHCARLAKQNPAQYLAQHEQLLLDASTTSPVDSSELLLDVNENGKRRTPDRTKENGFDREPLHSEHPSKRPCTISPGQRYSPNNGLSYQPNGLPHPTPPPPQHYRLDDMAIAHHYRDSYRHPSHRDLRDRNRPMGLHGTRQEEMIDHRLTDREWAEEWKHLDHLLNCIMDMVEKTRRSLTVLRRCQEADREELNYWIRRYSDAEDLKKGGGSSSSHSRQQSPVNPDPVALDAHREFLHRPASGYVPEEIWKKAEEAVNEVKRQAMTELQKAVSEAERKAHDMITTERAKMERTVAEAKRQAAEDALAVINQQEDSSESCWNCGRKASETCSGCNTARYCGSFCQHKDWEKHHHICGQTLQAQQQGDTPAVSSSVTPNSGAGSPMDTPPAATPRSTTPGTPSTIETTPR
B4: Vacuolar protein-sorting-associated protein 25 (Homo sapiens), Q9BRG1 (parent)
chain: MAMSFEWPWQYRFPPFFTLQPNVDTRQKQLAAWCSLVLSFCRLHKQSSMTVMEAQESPLFNNVKLQRKLPVESIQIVLEELRKKGNLEWLDKSKSSFLIMWRRPEEWGKLIYQWVSRSGQNNSVFTLYELTNGEDTEDEEFHGLDEATLLRALQALQQEHKAEIITVSDGRGVKFF
partner: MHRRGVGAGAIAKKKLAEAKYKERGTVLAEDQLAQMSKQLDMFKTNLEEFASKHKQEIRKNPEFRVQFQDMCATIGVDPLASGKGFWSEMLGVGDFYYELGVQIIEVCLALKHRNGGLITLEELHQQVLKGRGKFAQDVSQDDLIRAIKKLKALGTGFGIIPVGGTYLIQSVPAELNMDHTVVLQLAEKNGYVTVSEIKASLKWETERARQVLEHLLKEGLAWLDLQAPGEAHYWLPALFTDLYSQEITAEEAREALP
B5: Thioredoxin-dependent peroxide reductase, mitochondrial (Homo sapiens), P30048 (parent)
chain: MAAAVGRLLRASVARHVSAIPWGISATAALRPAACGRTSLTNLLCSGSSQAKLFSTSSSCHAPAVTQHAPYFKGTAVVNGEFKDLSLDDFKGKYLVLFFYPLDFTFVCPTEIVAFSDKANEFHDVNCEVVAVSVDSHFSHLAWINTPRKNGGLGHMNIALLSDLTKQISRDYGVLLEGSGLALRGLFIIDPNGVIKHLSVNDLPVGRSVEETLRLVKAFQYVETHGEVCPANWTPDSPTIKPSPAASKEYFQKVNQ
B6: Tektin-4 (Homo sapiens), Q8WW24 (parent)
chain: MAQTVPPCELPCKEYDVARNTGAYTSSGLATASFRTSKYLLEEWFQNCYARYHQAFADRDQSERQRHESQQLATETQALAQRTQQDSTRTVGERLQDTHSWKSELQREMEALAAETNLLLAQKQRLERALDATEVPFSITTDNLQCRERREHPNLVRDHVETELLKEAELIRNIQELLKRTIMQAVSQIRLNREHKETCEMDWSDKMEAYNIDETCGRHHSQSTEVQAHPYSTTFQESASTPETRAKFTQDNLCRAQRERLASANLRVLVDCILRDTSEDLRLQCDAVNLAFGRRCEELEDARYKLHHHLHKTLREITDQEHNVAALKQAIKDKEAPLHVAQTRLYLRSHRPNMELCRDAAQFRLLSEVEELNMSLTALREKLLEAEQSLRNLEDIHMSLEKDIAAMTNSLFIDRQKCMAHRTRYPTILQLAGYQ
partner: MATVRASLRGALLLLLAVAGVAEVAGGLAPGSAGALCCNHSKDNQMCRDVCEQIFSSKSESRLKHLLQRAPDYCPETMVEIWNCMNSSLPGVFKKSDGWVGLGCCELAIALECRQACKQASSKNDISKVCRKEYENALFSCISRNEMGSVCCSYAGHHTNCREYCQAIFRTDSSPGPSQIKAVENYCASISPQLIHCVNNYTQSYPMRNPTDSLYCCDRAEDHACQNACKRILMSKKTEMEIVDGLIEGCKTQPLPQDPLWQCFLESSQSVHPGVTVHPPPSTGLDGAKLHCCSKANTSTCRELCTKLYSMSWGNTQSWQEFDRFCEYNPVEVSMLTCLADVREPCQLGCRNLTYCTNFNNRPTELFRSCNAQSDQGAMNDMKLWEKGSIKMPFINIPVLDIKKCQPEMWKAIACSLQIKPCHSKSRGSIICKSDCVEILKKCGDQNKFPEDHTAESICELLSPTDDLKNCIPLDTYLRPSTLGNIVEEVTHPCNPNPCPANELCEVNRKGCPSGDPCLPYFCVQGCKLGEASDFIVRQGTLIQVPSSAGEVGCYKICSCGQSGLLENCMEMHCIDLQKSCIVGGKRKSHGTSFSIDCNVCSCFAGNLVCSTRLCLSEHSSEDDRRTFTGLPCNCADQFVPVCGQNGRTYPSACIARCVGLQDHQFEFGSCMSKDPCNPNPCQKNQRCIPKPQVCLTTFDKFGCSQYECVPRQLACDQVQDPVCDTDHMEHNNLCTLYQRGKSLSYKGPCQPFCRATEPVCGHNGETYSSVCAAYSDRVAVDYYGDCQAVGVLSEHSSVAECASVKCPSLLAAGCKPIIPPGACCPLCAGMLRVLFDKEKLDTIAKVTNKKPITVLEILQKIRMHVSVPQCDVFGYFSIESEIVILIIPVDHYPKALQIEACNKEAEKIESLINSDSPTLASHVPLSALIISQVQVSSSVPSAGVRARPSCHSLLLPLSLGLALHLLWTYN

Variants of: B1
Details: with cep95_human CEP95, Q96GE4

| Variant | effect of a mutation on the interaction |
| --- | --- |
| A89V | with no effect |

Variants of: B2
Details: with goga2_human GOLGA2, Q08379

| Variant | effect of a mutation on the interaction |
| --- | --- |
| G39C | with no effect |

Variants of: B3
Details: with mtg8_human RUNX1T1, Q06455

| Variant | effect of a mutation on the interaction |
| --- | --- |
| N31S | disrupting interaction strength |

Variants of: B3
Details: with mtg8_human RUNX1T1, Q06455
Remark: another data set of the same source

| Variant | effect of a mutation on the interaction |
| --- | --- |
| V376I | with no effect |

Variants of: B4
Details: with snf8_human SNF8, Q96H20

| Variant | effect of a mutation on the interaction |
| --- | --- |
| I76V | with no effect |

Variants of: B5
Details: with gors2_human GORASP2, Q9H8Y8

| Variant | effect of a mutation on the interaction |
| --- | --- |
| G173C | with no effect |

Variants of: B6
Details: with reck_human RECK

| Variant | effect of a mutation on the interaction |
| --- | --- |
| R255C | with no effect |

From IntAct's records for PubMed 31515488
